Results as given in the DeepSol protein solubility set.

Experiment: soluble on expression in E. coli; label from the status in PepcDB or PDB records

Soluble on expression in E. coli, not soluble:
MGSDKIHHHHHHMLGENIYLQRTQIGMTQENLSDYLHLTKTTISKWENNQAKPDIDYLILMANLFDISLDDLVGYQKTLSDDQRNQLIKDLKIKANVLSERDFFQEVKELSKQFPNDFKTLLIMINMVLSNLTNLNDSEMKEWSLSTLNKIISKTVVESDLQTAIMFKTVVLFHNLEYDEVINLYQNSPYKLGEELLLANSFFAKVDVYRAKQVLQVEIYQQILLVCEYLLSLSTFEVEENKGDIFERLEHMIEAFQLNSLHPNTVIKCYYSLACHYSKSDDDKALGYLKQCFKSLKQLLQRFELHGDTFFYTIDDWLETIPTGIAPPTSQLQVIERVEDLFQNSQFKELSGHKEFQQMIQKLNDLKKDY
MGSDKIHHHHHHMLHFKHSSVINATPEVVWKFHERPDILQLLNPPWQPVQVVRREGGLNVGAITEFRLFLGPLPLTWLARHTECDKYRLFTDEQISGPFESWVHRHEFEPEAGKTRLTDAISFSMPGGETVEFVSGWLVQVQLEAMFRYRHYVTKRECESQ
MGSDKIHHHHHHMLHIVNNLRDSFTPGTPHQAALAQIFPQDSEKQTMDKRDLSAIFRERLKLLLTRSDLNQSAFASAVGIDRSALSQLMSGASTRLPRAETLLNIAAEFKVSLDWLLGLSQDEGVTGEIRESLEIEEAPDGFDRTLLAKWFAEAAGTKIRYVPAGIPDLLRTRALVDYEANITNRSRLAQASETQYRIEYNRRPETDMEVCMPRHTLEIFARGLGVWDRFPEADRRQQLAHMATLLDDLYPTFRLFLYDGRMRYSIPLTIFGPYRAAIYVGDMYVVLNATQPVQALTQHFDNLIRAADVNPHEAAAFARNLAGMSFPSGSV
MGSDKIHHHHHHMLHRTCIQFHKFGNPKDVLQVEYKNIEPLKENEVLVRMLVRPINPSDLIPITGAYAHRIPLPNIPGYEGVGIVEDVGAFVSRDLIGKRVLPLRGEGTWQEYVKTSPDFVVPIPDSINDFTAAQMYINPLTAWVTCTETLNLQRNDVLLVNACGSAIGHLFAQLSQILNFRLIAVTRNNKHTEELLRLGAAYVIDTSTAPLYETVMTLTNGIGADAAIDSIGGPDGNELAFSLRPNGHFLTIGLLSGVQVNWAEIVTKAKVHANIFHLRHWNKEASSYKWQETFRHLIRLVENEQLRFMKVHSTYDLADVKAAVDVVQSAEKTKG
MGSDKIHHHHHHMLIAQVTDIHLGFEPDSPDEFNRQRLDRVLAELAAMDPRPDLLLATGDLIDRGDRESYERLRDAFSNLPFPVHYALGNHDERETFSAVFPEAAFTDGFLQYIVDAGPLRIIVLDTLEEGRHGGAFCDVRARWLKARLDEAPDTRTLIVQHHPPVEVGIAWMNTDPAEPWVERLGQCLRGRTNVVGVVCGHIHRAITTAWEGTVVATCPSTAPQVALDLRPIDPDVPDQRNLIIADPPGYALHWFNGRELITHWDTAEDHQVLARYDANLQGMIQHMLAERPGAQAAE
MGSDKIHHHHHHMLITCSESGIDFGKSLSTYIHEYLGLNRNCRLFEVKQACYSGTAGFQMAVNFILSQTSPGAKALVIASDISRFLIAEGGDALSEDWSYAEPSAGAGAVAVLVGENPEVFQIDPGANGYYGYEVMDTCRPIPDSEAGDSDLSLMSYLDCCEQTFLEYQKRVPGANYQDTFQYLAYHTPFGGMVKGAHRTMMRKVAKVKTSGIETDFLTRVKPGLNYCQRVGNIMGAALFLALASTIDQGRFDTPKRIGCFSYGSGCCSEFYSGITTPQGQERQRTFGIEKHLDRRYQLSMEEYELLFKGSGMVRFGTRNVKLDFEMIPGIMQSTQEKPRLFLEEISEFHRKYRWIS
MGSDKIHHHHHHMLKKQLFADRLLAQMPSLRALRCFVTAARYESFTQAAEVLCVTQAAVSRQIKELEDSLDVALFERTGRHIALTDAGRILYNASYLSIMNIAEAAEAVRRTDKHALMICVSHTFSALWLSSRLPAFRERFPDIRLNLIVTEHFMELDGLIEPDVIITKNPPREPEFDVEPMFHDIVYPVCSPAFHERHFHGRSLKPLDLLSRPTLNLSMLGRAQVCEHVDWRVWRNWFQQGDGTDTLTENKYLESNDYRLLVAQAEAGEGTLLGWHHLVHRQIDQGILMRPVQDVLVFRDRHHYLITHRNAQPRPEYQQFRQWLNDEVGVMMRGWLDAGVEGEQ
MGSDKIHHHHHHMLKNDQLDQWDRDNFFHPSTHLAQHARGESANRVIKTASGVFIEDRDGTKLLDAFAGLYCVNVGYGRQEIAEAIADQARELAYYHSYVGHGTEASITLAKMILDRAPKNMSKVYFGLGGSDANETNVKLIWYYNNILGRPEKKKIISRWRGYHGSGLVTGSLTGLELFHKKFDLPVEQVIHTEAPYYFRREDLNQTEEQFVAHCVAELEALIEREGADTIAAFIGEPILGTGGIVPPPAGYWEAIQTVLNKHDILLVADEVVTGFGRLGTMFGSDHYGLEPDIITIAKGLTSAYAPLSGSIVSDKVWKVLEQGTDENGPIGHGWTYSAHPIGAAAGVANLKLLDELNLVSNAGEVGAYLNATMAEALSQHANVGDVRGEGLLCAVEFVKDRDSRTFFDAADKIGPQISAKLLEQDKIIARAMPQGDILGFAPPFCLTRAEADQVVEGTLRAVKAVLG
MGSDKIHHHHHHMLKRLLDYNDGEEMDIVVLIKNSQLRRNKKDKLFLAMQFGDGSGEIRGNYWDASHQDAATFSTGTIVELNGKREEYQGRPQIRIYSLRVVGPQEGYSLDEFIKSAPETTNDMKGEIDDFVKQIQNRTWRSIVEYLLKKWDKRFFDYPAGKSNHHALRGGLAYHTLAMLKDARGLADNYEQINRSLLYAGCILHDMGKVQELTGPAATQYTIEGNLVGHLVLIDEQIMLAAQDLKIDLESEDLLLLRHMVLSHHGKFEYGSPKLPALLEAEILHRIDDLDAMVYAVTNALQHTGKGTFTEPLQSQDGKRYYRPKNDPELDQAKNLE
MGSDKIHHHHHHMLKTKTALTLSDKNYYSTEADWHYMSVSQYKNFNECEAATIARLKKIWLPCSDPKALLVGNYVHSYFESSKIHDLFKKENKDKMFSSRKPYGLLKDFQIAEQMIQRLKEEPAFMNLYKGEKEVIVTGQIENVNWKGKIDCLNLEDGYFVDIKTTKDIHERKWNDSYAERCTFIENYGYVLQMAVYKELLSQKYNREFVPIIAAVSKQTPSEVKLITLDEDKMHFEMIQLKENIEHIIKVKNGEEKPTLCGRCEYCRGQQRITHFTNMNDL
MGSDKIHHHHHHMLLHFVPINVFRETPQVSFFDAGVNGSNGADVVIHHKNAISPPDDGNFEQYYIHNHQVDHNLVIEGSRKFTLINPKWDEPHHVIFLNRAMGALQIPIGTYHRSESGKEGSIVLNQATRDDMFDQRKEFSPVSLRSNKQLRKARQAHPVYWIWEEERIKRVKLDCKGYSKNIKLEPLKTAH
MGSDKIHHHHHHMLLIDTHAHVLSPDRTTFPRDYGLDMAWARGDLSAQQLVAAMDESSISKTLLIQAYSAYRYDNSYLESVIGEFPDRFAGVCMVDPLARDVSDRLTSLIVDRKFAGTRIVIVQPEPRLDDPAMAPFYETCAELRTPLCVLTIPPKLKELEVPLSQWPSLQVVVEHLGLIHTASGDSVSKERPLLDLARFPNCILKFSTISLRVAAAFEGGAQGQFERLIDAFGAQRLMWGSDYPSTPEGGIPGLVNEMHQALDFLPHHDLALLSGEAACRIWSTLRPVSSRGLA
MGSDKIHHHHHHMLMELTTTSHALKEWAVAVNALESGKTIMLLRKGGIHERNGNFQVAHKQILLYPTYEHQQAFMLKPEYANRVYPVTSGWHPETVRIGSWAEITDILPISDEFLVNALLPFHIWNEHFISDRLKWKPRQPLYILLLRTYKLTQDQEIPYHPKYGGCKSWIDLDQSINLQETTPALSDFAYTQLVQTIRGIVGDKMARKIDMLNYNSTFS
MGSDKIHHHHHHMLNPREIRTIEDAKRIVEERQLTHVKVGLFDIDGVMLGKYMSRNKFFSALEHGFAFCDVILGWDSKDKLYDNVKYTGWHTGYPDASVRIVPSTCREILFEENQLLFMAEFSQAAEAICPRGILRRVINKAAGMGYDVYAALEYEFFVFDETPDSVRAKGFRNLKPVTPDNFGYSIIRNTVHAEFYHQILTMAEKMDFPIEGLHTETGPGVLEAAIAVDDAEAAGDKAALFKTFMKILAQRNNKMATFMAKWSGDYPGQSGHIHLSLRDRDGGKSAFYESGREYNMSKIQRHFLAGQQKLMPEFLAMLSPTVNSYSRLIPGYWAPTEATWGVENRTTALRVIPGSDKSQRIEYRLGSADANPYLALAAAIGSGLYGIENELEPEAEVKGNSYEQHHSPALALPRTLWESAQNLKNSSAAYELFGQEFVEHFAASREWEEREFRKHITDWELDRYFEII
MGSDKIHHHHHHMLNQQWLTTFIKLVEVGHFTHTAEQLFMTQPGVSQHIKKLEQQVGVDLLIRIGKSFELTEAGIVLYQQALVWQQQQQQVLSQLAVDDEHVGDCRLACSGSMALLLYPHLIDYQLPYSQLQIYLEAAPNKRIIDSVMTNTIDVGIITQPINMDELVVTPLAAQSLCLVLPQSYLHQSVTFEQLMELGMVSHPDAMHYWSQIVGQYFTKKQALALQVPIRSYVNQLNQILVPVAKGLAFAVLPQFAVDHFGQQQHIRVASFTTEQANNVVVSEPLFIIYKKHRPLARRYGPIIDKIKQLVK
MGSDKIHHHHHHMLQIKRKINATQSLMKITRAMEMVARAKVRKIESEYQKFKPFYDEVKRLWALVPAESLDPIFFEEGNRDLIVVITSDMGLCGSFNSEILREAERVISESRDPHLILVGLKAINHFKDGKVLKMYDRFYEIPDFRNGSTIVEDILNFLDGKPARVRVIFSRFKNVLIQRPEVHELLPIKKEEKKREDFEYEPRLEQIAPLIFHYYLSATLMELMFQTKIGEYYARQNAMKNATDNAQEVIRELTLAYNKARQASITQELIEIVTGAEALKEIEK
MGSDKIHHHHHHMLQLPDSPPRMKTLVSVDESYKLCRHLTAKYAKTFYLGTLLMSPVKRQSIWSIYAWCRRTDELVDGPASAITTPETLDLWEQQLESIFAGRPLENYDVALVDTLQRFPMDIQPFRDMIAGQRMDLYRSRYETFEDLYLYCYRVAGTVGLMSTEVMGVDSTLYTAPWHQNKQPYLPTEEAIALGIANQLTNILRDVGEDAKRGRIYIPLEDLEKFNYTEQDFFKGVVDDRWRALMRFQIERARQFYTTSNQGITYLASDARWPVWAASMLYGQILEVIERNDYDVFSRRAFVPQWKKLRTLPLAWMRSQVL
MGSDKIHHHHHHMLQNPIHLRLERLESWQHVTFMACLCERMYPNYAMFCQQTGFGDGQIYRRILDLIWETLTVKDAKVNFDSQLEKFEEAIPSADDFDLYGVYPAIDACVALSELVHSRLSGETLEHAVEVSKTSITTVAMLEMTQAGREMSDEELKENPAVEQEWDIQWEIFRLLAECEERDIELIKGLRADLREAGESNIGIIFQQ
MGSDKIHHHHHHMLQVTDVSLRFGDRKLFEDVNIKFTEGNCYGLIGANGAGKSTFLKILSGELDSQTGHVSLGKNERLAVLKQDHYAYEDERVLDVVIKGHERLYEVMKEKDEIYMKPDFSDEDGIRAAELEGEFAEMNGWNAEADAANLLSGLGIDPTLHDKKMAELENNQKIKVLLAQSLFGEPDVLLLDEPTNGLDIPAISWLEDFLINFDNTVIVVSHDRHFLNNVCTHIADLDFGKIKVYVGNYDFWYQSSQLAQKMAQEQNKKKEEKMKELQDFIARFSANASKSKQATSRKKQLEKIELDDIQPSSRRYPFVKFTPEREIGNDLLIVQNLSKTIDGEKVLDNVSFTMNPNDKAILIGDSEIAKTTLLKILAGEMEPDEGSFKWGVTTSLSYFPKDNSEFFEGVNMNLVDWLRQYAPEDEQTETFLRGFLGRMLFSGEEVKKKASVLSGGEKVRCMLSKMMLSSANVLLLDEPTNHLDLESITAVNDGLKSFKGSIIFTSYDFEFINTIANRVIDLNKQGGVSKEIPYEEYLQEIGVLK
